Laboratory results from PMC10075960, “Inhibition of FAM46/TENT5 activity by BCCIPα adopting a unique fold” (Science Advances, 2023).

T1: Full-length human FAM46C with a FLAG-tag (human, UniProt Q5VWP2 1-391)
T1 sequence (looked up): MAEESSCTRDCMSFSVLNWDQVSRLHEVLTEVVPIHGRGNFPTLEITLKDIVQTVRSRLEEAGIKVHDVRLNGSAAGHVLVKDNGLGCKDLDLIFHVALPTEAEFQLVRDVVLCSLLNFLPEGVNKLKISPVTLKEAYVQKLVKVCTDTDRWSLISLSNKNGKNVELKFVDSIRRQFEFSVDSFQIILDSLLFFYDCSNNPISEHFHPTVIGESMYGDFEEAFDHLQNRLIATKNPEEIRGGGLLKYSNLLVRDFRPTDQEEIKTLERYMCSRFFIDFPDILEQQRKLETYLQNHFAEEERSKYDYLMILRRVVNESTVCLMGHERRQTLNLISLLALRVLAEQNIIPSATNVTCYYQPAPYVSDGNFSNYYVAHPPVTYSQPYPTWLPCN

T2: Full-length human FAM46A with a FLAG-tag (human, UniProt Q96IP4 1-442)
T2 sequence (looked up): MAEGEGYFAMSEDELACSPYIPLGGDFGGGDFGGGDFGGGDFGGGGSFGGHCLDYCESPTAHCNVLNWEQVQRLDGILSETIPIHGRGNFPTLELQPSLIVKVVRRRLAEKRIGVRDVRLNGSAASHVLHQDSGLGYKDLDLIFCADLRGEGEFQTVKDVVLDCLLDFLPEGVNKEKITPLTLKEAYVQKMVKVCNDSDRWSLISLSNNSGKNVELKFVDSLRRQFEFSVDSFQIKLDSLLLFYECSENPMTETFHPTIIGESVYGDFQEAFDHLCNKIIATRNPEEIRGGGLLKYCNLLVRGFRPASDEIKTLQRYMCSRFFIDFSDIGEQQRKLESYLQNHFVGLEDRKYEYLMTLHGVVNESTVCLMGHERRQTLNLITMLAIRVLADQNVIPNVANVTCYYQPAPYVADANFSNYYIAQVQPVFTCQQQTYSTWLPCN

T3: FAM46A (residues 64 to 394) (human, UniProt Q96IP4 64-394)
T3 construct: human FAM46A (TENT5A) residues 64 to 394; also called TENT5A; source: E. coli BL21 (DE3), purified (Ni-NTA, on-column 3C cleavage, Resource Q); not shown: His6, N-terminal, cleaved
T3 sequence (looked up): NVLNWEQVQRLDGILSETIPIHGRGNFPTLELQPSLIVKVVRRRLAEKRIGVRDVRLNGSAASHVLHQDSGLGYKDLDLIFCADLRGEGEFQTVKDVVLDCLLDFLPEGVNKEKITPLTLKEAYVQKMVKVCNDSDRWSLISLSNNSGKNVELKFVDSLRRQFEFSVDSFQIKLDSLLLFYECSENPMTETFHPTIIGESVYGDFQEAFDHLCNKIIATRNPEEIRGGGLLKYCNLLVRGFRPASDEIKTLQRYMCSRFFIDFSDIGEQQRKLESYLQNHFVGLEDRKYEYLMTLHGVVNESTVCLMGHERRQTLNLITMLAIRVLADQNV

B1: BCCIPα with a Myc-tag (natural protein, human, UniProt Q9P287-2 1-322, looked up)
chain: MASRSKRRAVESGVPQPPDPPVQRDEEEEKEVENEDEDDDDSDKEKDEEDEVIDEEVNIEFEAYSLSDNDYDGIKKLLQQLFLKAPVNTAELTDLLIQQNHIGSVIKQTDVSEDSNDDMDEDEVFGFISLLNLTERKGTQCVEQIQELVLRFCEKNCEKSMVEQLDKFLNDTTKPVGLLLSERFINVPPQIALPMYQQLQKELAGAHRTNKPCGKCYFYLLISKTFVEAGKNNSKKKPSNKKKAALMFANAEEEFFYEEQGKPEVLGGPDTRRGLEPVPIQHNGGSRGQVTALVSLKAGLIQSRSTLSDFQGTFMTVGIALS
B2: BCCIPα-ΔL (residues 50 to 322 with deletions of residues 112 to 122 and 231 to 280) (domain or fragment, human, UniProt Q9P287-2 50-322, looked up)
chain: DEVIDEEVNIEFEAYSLSDNDYDGIKKLLQQLFLKAPVNTAELTDLLIQQNHIGSVIKQTDVEVFGFISLLNLTERKGTQCVEQIQELVLRFCEKNCEKSMVEQLDKFLNDTTKPVGLLLSERFINVPPQIALPMYQQLQKELAGAHRTNKPCGKCYFYLLISKTFVEAGQHNGGSRGQVTALVSLKAGLIQSRSTLSDFQGTFMTVGIALS
notes: human BCCIPα residues 50 to 322 with two loop deletions; source: E. coli BL21 (DE3), purified (Ni-NTA, on-column 3C cleavage, Resource Q); not shown: His6, N-terminal, cleaved
B3: BCCIPα-ΔS (residues 50 to 322 with deletions of residues 112 to 122, 235 to 243, and 273 to 276) (domain or fragment, human, UniProt Q9P287-2 50-322, looked up)
chain: DEVIDEEVNIEFEAYSLSDNDYDGIKKLLQQLFLKAPVNTAELTDLLIQQNHIGSVIKQTDVEVFGFISLLNLTERKGTQCVEQIQELVLRFCEKNCEKSMVEQLDKFLNDTTKPVGLLLSERFINVPPQIALPMYQQLQKELAGAHRTNKPCGKCYFYLLISKTFVEAGKNNSAALMFANAEEEFFYEEQGKPEVLGGPDTRPVPIQHNGGSRGQVTALVSLKAGLIQSRSTLSDFQGTFMTVGIALS
notes: human BCCIPα residues 50 to 322 with three loop deletions; source: E. coli BL21 (DE3), purified (Ni-NTA, on-column 3C cleavage, Resource Q); not shown: His6, N-terminal, cleaved
B4: Nb.1 (VHH)
VHH: QVQLQESGGGLVQAGGSLRLSCAASGTISPRGVMGWYRQAPGKEREFVAAINYGGTTYYADSVKGRFTISRDNAKNTVYLQMNSLKPEDTAVYYCAVYYYINSQRKVLLYWGQGTQVTVSS
notes: nanobody selected from a synthetic yeast-display library; cloned into a modified pET28 vector; also called nanobody Nb.1

Experiments:
[1] = molecular target: T1, Full-length human FAM46C with a FLAG-tag; test: cell-based or functional assay
[2] = molecular target: T2, Full-length human FAM46A with a FLAG-tag; test: cell-based or functional assay
[3] = molecular target: T3, FAM46A (residues 64 to 394); test: crystal structure; FAM46A (64-394) with BCCIPα-ΔS (3.5 Å) or BCCIPα-ΔL (3.2 Å); complexes mixed 1:1 and purified on Superdex 200; conditions: both partners purified
[4] = molecular target: B3; test: cryo-EM structure; FAM46C/BCCIPα-ΔS/Nb.1 mixed 1:1:2, purified on Superdex 200; filament segments treated as single particles, D2 symmetry, 6.5 Å; models docked as rigid bodies; conditions: both partners purified
FAM46C/BCCIPα-ΔS complex = molecular target: T4, FAM46C/BCCIPα-ΔS complex (human, UniProt Q5VWP2 1-391; Q9P287-2 50-322, deletions of residues 112 to 122 | deletions of residues 235 to 243 | deletions …); test: as above; conditions: both partners purified
T4 construct: human FAM46C (TENT5C), as m15; Avi-tagged, biotinylated FAM46C residues 15 to 350 in the nanobody screening; human BCCIPα residues 50 to 322 with three loop deletions, as m12; with Nb.1 it forms a 4:4:4 assembly of four 1:1:1 units and filaments; also called FAM46C/BCCIPα complex; FAM46C/BCCPα complex; source: E. coli BL21 (DE3), each protein purified, then mixed; not shown: His6, N-terminal, …

Binder: B1
mean nucleus/cytoplasm intensity ratio of FAM46C in U2OS cells coexpressing BCCIPα (immunofluorescence; 1.94 without BCCIPα) [1]: 3.04
mean nucleus/cytoplasm intensity ratio of FAM46A in U2OS cells coexpressing BCCIPα (immunofluorescence; 1.90 without BCCIPα) [2]: 2.85

Binder: B2
binding result [3]: binds

Binder: B3
binding result [3]: binds

Binder: B4
binding result [4]: binds
stoichiometry N (FAM46C/BCCIPα-ΔS complex): 1
